# Source: patent publication US20130046257A1, “METHODS OF USING AGENTS THAT MODULATE CLAUDIN EXPRESSION” (priority 2010, published 2013)
# Values joined by “and” are separate entries in the source; they are usually repeats but may differ in a detail not shown here. Identical values can stand only once. “Also recorded” adds a separate entry of the source.
# B1: CLDN1 siRNA: claudin-1 siRNA (h), Santa Cruz; a pool of 3 separate strands, SEQ ID NO: 10-15 (nucleic acid)
# chain 1: UACAUAGGCAUAGUUCAUGNN
# chain 2: CAUGAACUAUGCCUAUGUANN
# chain 3: AACGUAUGCAGUUAAUUCCNN
# chain 4: GGAAUUAACUGCAUACGUUNN
# chain 5: UGAAGAUCUAUGUAUGUGGNN
# chain 6: CCACAUACAUAGAUCUUCANN
# modifications: chemistry not given here
# Key:
# HSV-1 strain F = test: HSV-1 fluorescent-focus assay in siRNA transfected PHK; type: cell-based, human; conditions: siRNA 100 nM
# Description: Infection studies were performed using the highly virulent HSV-1 strain F (provided by Dr. D.C. Johnson). Twenty-four to 48 h post-transfection with 100 nM claudin-1 or control siRNA, the cells were differentiated in DMEM with 10% heat-inactivated FBS for 24 h. Cells were washed twice with HBSS and infected with HSV-1 strain F at a multiplicity of infection (MOI) of 0.1 in DMEM containing 1% heat-inactivated FBS at 37° C., with rocking every 15 min. After 2 h, the viral inoculum was removed, and the cells were washed 2× with HBSS and incubated in DMEM containing 5% HI-FBS and 0.4% human-γ-globulin (Sigma; final concentration 0.5 mg/ml) for 24 hr to neutralize any extracellular virus.
# HSV-infected PHK were washed 2× with PBS and fixed in 4% formaldehyde/PBS for 20 min at room temperature. A polyclonal rabbit anti-HSV-1 (Dako) antibody diluted 1:500 in PBS/1% BSA was placed on the PHK for 1 h at 37° C. followed by Alexa Fluor 488 donkey-anti-rabbit IgG H+L (1:1000, Molecular Probes) and 4′,6-diamidino-2-phenyl-indole, dihydrochloride (DAPI) (1:10,000, Molecular Probes). Coverslips were mounted onto slides with SlowFade (Molecular Probes). […] Images were stored in Portable Network Graphics (PNG) format and analyzed computationally to objectively quantify differences in focal forming units (FFU). […] Cell density was calculated by counting the number of DAPI labeled nuclei, assigned to the blue channel. Images were analyzed using MATLAB to enumerate FFU, and total cell number. […]
# The MOI was chosen based on findings from viral titration (0.01 to 10 MOI) studies on differentiated and undifferentiated PHK, respectively, used as negative and positive controls. […] For each sample, six random fields were captured at identical acquisition settings and analyzed computationally to objectively quantify differences in focal forming units (FFU). […] An average of 4.8±0.7 FFU/field were counted in CLDN1 knockdown PHK, while only 2.5±0.5 FFU/field were detected in the control cells (P=0.05; n=6; FIG. 15C). Adapted Fluorospot software was used to semi-quantify differences in dimensions of each FFU. […]
# [1] = system: occludin, ZO-1, nectin-1, E-cadherin, filaggrin mRNA; test: qPCR of other barrier genes in claudin-1 siRNA transfected PHK; type: cell-based, human; conditions: siRNA 100 nM
# Description: QPCR was performed using the iScript™ cDNA Synthesis kit and iQ™ SYBER Green Supermix assay system (Bio-Rad Laboratories). All PCR amplifications were carried out in triplicate on an iQ5 Multicolor real-time PCR detection system (Bio-Rad). Primers were designed and synthesized by Integrated
# DNA Technologies (Table 1). Relative gene expression was calculated by using the 2^−ΔΔCt method. Livak and Schmittgen, “Analysis of Relative Gene Expression Data Using Real-Time Quantitative PCR and the 2(-Delta Delta C(T)) Method,” Methods 25:402-8 (2001), which is hereby incorporated by reference in its entirety. The normalized Ct value of each sample was calculated using GAPDH as an endogenous control gene.
# Reverse transcription was performed from total RNA using iScript™ cDNA Synthesis kit (Bio-Rad) according to the manufacturer's protocol. qPCR was performed using the iQ™ SYBER Green Supermix assay system from Bio-Rad Laboratories. All PCR amplifications were carried out in triplicate on an iQ5 Multicolor real-time PCR detection system (Bio-Rad). Primers were designed and synthesized by Integrated DNA Technologies. Primers used in the study: GAPDH (forward: SEQ ID NO: 16 and reverse: SEQ ID NO: 17); Cldn-1 (forward: (SEQ ID NO:18 and reverse: SEQ ID NO:19); PVRL1 (Nectin1; forward: SEQ ID NO:28 and reverse SEQ ID NO:29).
# Relative gene expression was calculated by using the […] method, in which Ct indicates cycle threshold, the fractional cycle number where the fluorescent signal reaches detection threshold. Livak and Schmittgen, “Analysis of Relative Gene Expression Data Using Real-Time Quantitative PCR and the 2(-Delta Delta C(T)) Method,” Methods 25:402-8 (2001), which is hereby incorporated by reference in its entirety. The normalized Ct value of each sample was calculated using GAPDH as an endogenous control gene.
molecule,measurement,setting,value
B1,HSV-1 focal forming units,"HSV-1 strain F; HSV-1 MOI 0.1, 24 h, n=6",4.8±0.7 FFU/field
same,FFU area,"HSV-1 strain F; HSV-1 MOI 0.1, n=6",15649±4367 pixels
same,diameter of the major axis of FFU,"HSV-1 strain F; HSV-1 MOI 0.1, n=6",207±22 μm and 207±21 μm
same,effect on nectin-1 mRNA expression,[1],not affected; also recorded: no effect
same,"effect on mRNA expression of occludin, ZO-1, nectin-1, E-cadherin or filaggrin",[1]; n=5/group,no effect
same,nectin-1 (PVRL1) mRNA relative expression,[1]; n=5/group,0.99±0.16
